Laboratory results published in patent publication US20090075925A1, “Methods and Compositions Related to APOBEC-1 Expression” (priority 2006, published 2009).
Each block holds one molecule with its values, some of them ahead of it.

Experiments:
apoB mRNA editing [1] = experiment: in vitro apoB mRNA editing activity of nuclear extract after phosphatase treatment; type: biochemical, rat
Experimental: (§1) In vitro editing reactions and RNA binding assays. In vitro editing reactions and quantitative poisoned-primer extension assays were carried out using 80 μg of extract proteins as previously described (Shah et al. (1993), Smith, H. C. (1998)). ApoB RNA binding assays were performed by subjecting nuclear extract (80 μg) to in vitro editosome assembly and ultraviolet crosslinking (Smith, H. C. (1998)).
As an interaction between ACF and APOBEC-1 is critical for editing activity (Metha et al. Mol Cell Biol 20:1846-54 (2000)) the effect of alkaline phosphatase treatment on in vitro editing activity of hepatocyte extracts was investigated.

ACF/APOBEC-1 complexes = experiment: co-immunoprecipitation of HA-tagged APOBEC-1 with ACF from McArdle nuclear extracts; type: biochemical, rat; settings: nuclear extracts treated with CIAP
Experimental: Nuclear extracts were immunoprecipitated with ACF CT antibody and processed as described in FIG. 1. For CIAP treatment extracts were adjusted to 5 mM MgCl2, 3 mM CaCl2, 0.1 mM ZnCl2 and 25% glycerol and then incubated with 5U CIAP for 1 hour at 30° C. Control extracts were treated similarly but lacked phosphatase. The ratios of APOBEC-1:ACF were determined by scanning densitometry and quantitation using ImageJ Software. HC, position of 1g heavy chain. (n=4, standard deviation+/−0.2). […] In vitro editing activity was determined using the poisoned-primer extension assay. The percent editing was quantified by PhoshorImager (Molecular Dynamics) scanning densitometry. Data shown is representative of 3 independent experiments. *Statistical significance was determined to be P≦0.01 by unpaired t-test relative to control. […] Quantitation of relative amounts of ACF bound was performed using PhoshorImager scanning densitometry. Data shown are representative of 4 independent experiments. *Statistical significance was determined to be P≦0.01 by unpaired t-test relative to control.
Given the selective recovery of APOBEC-1 with nuclear ACF (FIG. 1), the interaction between ACF and APOBEC-1 was explored in nuclear extracts was mediated by post-translational modifications such as protein phosphorylation.

apoB mRNA = experiment: ultraviolet light cross-linking of ACF (p66) to apoB RNA in liver nuclear extract; type: binding, rat
Experimental: as §1
To further investigate the role of phosphorylation, rat liver nuclear extract was treated with CIAP and assayed for in vitro apoB RNA editing activity. […] Phosphorylation can play a role in the subcellular localization and/or stability of ACF. […] These yields were achieved by treatment of rat primary hepatocytes (40 T25 flasks) with 0.45% ethanol for four hours in the presence of 70 mCi of total inorganic ^32P followed by immunoprecipitation of ACF64/65 (FIG. 32). Two IPs were resolved by PAGE (FIG. 32, Coomassie) and ACF64/65 identified (western).

ACF = target: T1, ACF (Rattus norvegicus, UniProt Q923K9); experiment: removal of 32P label from immunoprecipitated hepatic ACF; type: biochemical; settings: in vivo labeled rat hepatic nuclear extract
T1 construct: from tissue; host or cells: rat liver nuclear extract (27S gradient fractions)
T1 sequence (Q923K9 1-586 isoform Q923K9-2): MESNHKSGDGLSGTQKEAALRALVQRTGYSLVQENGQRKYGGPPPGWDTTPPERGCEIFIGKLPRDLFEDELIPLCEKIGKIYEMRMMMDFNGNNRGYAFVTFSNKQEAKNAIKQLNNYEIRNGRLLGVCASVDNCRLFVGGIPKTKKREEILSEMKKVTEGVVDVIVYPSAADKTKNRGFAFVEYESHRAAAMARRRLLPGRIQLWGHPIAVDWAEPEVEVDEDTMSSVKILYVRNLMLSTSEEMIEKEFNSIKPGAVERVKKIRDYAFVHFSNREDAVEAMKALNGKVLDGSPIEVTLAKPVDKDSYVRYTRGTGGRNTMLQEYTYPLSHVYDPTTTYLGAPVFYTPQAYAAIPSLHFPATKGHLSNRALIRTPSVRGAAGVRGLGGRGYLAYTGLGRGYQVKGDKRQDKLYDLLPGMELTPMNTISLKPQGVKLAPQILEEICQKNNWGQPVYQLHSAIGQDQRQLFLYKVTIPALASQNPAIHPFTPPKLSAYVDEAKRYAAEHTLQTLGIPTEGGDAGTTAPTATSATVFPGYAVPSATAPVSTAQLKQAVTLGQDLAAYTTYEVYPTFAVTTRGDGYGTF
Experimental: ACF is a phosphoprotein. Previous studies using site-directed mutagenesis of APOBEC-1 and overexpression of protein kinase Co implicated phosphorylation of APOBEC-1 as a mechanism for activating apoB mRNA editing (Chen et al. (2001)). To evaluate whether endogenous ACF is phosphorylated in vivo, rats were radiolabeled for 4 hours via an intraperitoneal injection of orthophosphoric acid in HEPES-buffered saline. Following extensive digestion of hepatic nuclear extracts with DNase I and RNase T1 to remove radiolabeled nucleic acids, ACF was immunoprecipitated with the CT antibody, resolved by SDS-PAGE, transferred to nitrocellulose and analyzed by autoradiography as well as immunoblotting with ACF NT antibody (FIG. 3A). A single band was detected by autoradiography that super-imposed with ACF-specific immunoblot reactivity. Greater than 90% of the ^32P-label was removed by CIAP treatment (FIG. 3B), consistent with the post-translational phosphorylation of protein. […] The amino acid sequence of rat ACF was predicted contain 23 serine/threonine and 7 tyrosine high probability sites of phosphorylation (http://www.cbs.dtu.dk/services.NetPhos and http://expasy.org/tools/scanprosite). […] Nuclear ACF was detected as two predominant charge isoforms (FIG. 3B). […]

apoB mRNA editing [2] = experiment: apoB mRNA editing in McArdle cells (ethanol, ACF wild type, mutants and isoforms); type: cell-based, rat; settings: HA-tagged, transfected McArdle cells
Experimental: McArdle RH7777 cells (ATCC Manassas, Va.) stably expressing HA epitope-tagged APOBEC-1 (Yang et al. J Biol Chem 272:27700-6 (1997)) were treated for 4 hours with 0.9% ethanol and fractionated into nuclear extracts (Van Mater et al. (1998)).
To calibrate the system cells were incubated in the presence of ethanol for 4 hours and the amount of edited apoB mRNA determined.
The overall expression and subcellular localization of epitope tagged ACF isoforms is established by western blotting of nuclear and cytoplasmic extracts (prepared using NE-PER system; Pierce). These biochemical studies are complemented by immunofluorescence microscopy of paraformaldehyde fixed cells reacted with epitope tag or ACF isoform-specific antibodies. In pilot experiments varying levels of HA-tagged ACF43 and ACF45 were expressed by transfecting differing amounts of cDNA into McArdle or McAPOBEC cells (FIGS. 35A & C, western blots). […] The above transient transfection scenarios can be recapitulated in ethanol treated cells to evaluate the affect of ACF isoform abundance on cells ability to respond to metabolic perturbation. […] ACF expression levels, subcellular localization and editing activity are determined from replicate experiments and the relative affects of overexpressing each isoform compared in the absence (negative control) or presence of ethanol and to the response seen in wild type cells (positive control).

apoB mRNA editing [3] = experiment: apoB mRNA editing in McAPOBEC cells transfected with ACF isoforms; type: cell-based, rat; settings: HA-tagged
From the text: The overall expression and subcellular localization of epitope tagged ACF isoforms is established by western blotting of nuclear and cytoplasmic extracts (prepared using NE-PER system; Pierce). These biochemical studies are complemented by immunofluorescence microscopy of paraformaldehyde fixed cells reacted with epitope tag or ACF isoform-specific antibodies. In pilot experiments varying levels of HA-tagged ACF43 and ACF45 were expressed by transfecting differing amounts of cDNA into McArdle or McAPOBEC cells (FIGS. 35A & C, western blots). The level of exogenously expressed HA-tagged APOBEC-1 in McAPOBEC cells was high and unaffected by ACF isoform expression (FIG. 35C). Sufficient endogenous ACF was expressed in McAPOBEC cells to support 61% editing (FIG. 35D, poisoned primer extension) given the level of APOBEC-1 overexpression (FIG. 35C). […] ACF43's facilitation of ACF64/65 binding to apoB mRNA enhanced editing activity only when APOBEC-1 abundance was not rate limiting (analogous to FIG. 34, insulin). […] ACF expression levels, subcellular localization and editing activity are determined from replicate experiments and the relative affects of overexpressing each isoform compared in the absence (negative control) or presence of ethanol and to the response seen in wild type cells (positive control).

mooring sequence = settings: read-out: Kd for the mooring sequence / apoB mRNA; cited from earlier work

inhibition of apoB mRNA editing activity relative to control extracts (apoB mRNA editing [1]; CIAP-treated nuclear extract): 2.5 fold
inhibition of in vitro editing activity compared to buffer-treated control extracts (apoB mRNA editing [1]; rat liver nuclear extracts): > 50%
32P-label removed from ACF (ACF): Greater than 90%
B1: CIAP: Calf Intestinal Alkaline Phosphatase (protein, UniProt P19111 20-506, looked up)
Intestinal-type alkaline …: LVPVEEEDPAFWNRQAAQALDVAKKLQPIQTAAKNVILFLGDGMGVPTVTATRILKGQMNGKLGPETPLAMDQFPYVALSKTYNVDRQVPDSAGTATAYLCGVKGNYRTIGVSAAARYNQCKTTRGNEVTSVMNRAKKAGKSVGVVTTTRVQHASPAGAYAHTVNRNWYSDADLPADAQMNGCQDIAAQLVNNMDIDVILGGGRKYMFPVGTPDPEYPDDASVNGVRKRKQNLVQAWQAKHQGAQYVWNRTALLQAADDSSVTHLMGLFEPADMKYNVQQDHTKDPTLQEMTEVALRVVSRNPRGFYLFVEGGRIDHGHHDDKAYMALTEAGMFDNAIAKANELTSELDTLILVTADHSHVFSFGGYTLRGTSIFGLAPSKALDSKSYTSILYGNGPGYALGGGSRPDVNDSTSEDPSYQQQAAVPQASETHGGEDVAVFARGPQAHLVHGVEEETFVAHIMAFAGCVEPYTDCNLPAPTTATSIPD
reduction in HA-tagged APOBEC-1 recovered with immunoprecipitated ACF (ACF/APOBEC-1 complexes): 3 fold
ultraviolet light cross-linking of ACF to apoB mRNA (apoB mRNA; 1, 5 or 10 U): did not significantly increase ultraviolet light cross-linking of ACF to apoB mRNA
increase in yield of cross-linked p66 compared to control (apoB mRNA; highest CIAP treatment): 40%

B2: ACF43: 43 kDa ACF variant, SEQ ID NO:19 (protein)
chain: MESNHKSGDGLSGTQKEAALRALVQRTGYSLVQENGQRKYGGPPPGWDAAPPERGCEIFIGKLPRDLFEDELIPLCEKIGKIYEMRMMMDFNGNNRGYAFVTFSNKVEAKNAIKQLNNYEIRNGRLLGVCASVDNCRLFVGGIPKTKKREEILSEMKKVTEGVVDVIVYPSAADKTKNRGFAFVEYESHRAAAMARRKLLPGRIQLWGHGIAVDWAEPEVEVDEDTMSSVKILYVRNLMLSTSEEMIEKEFNNIKPGAVERVKKIRDYAFVHFSNRKDAVEAMKALNGKVLDGSPIEVTLAKPVDKDSYVRYTRGTGGRGTMLQGEYTYSLGQVYDPTTTYLGAPVFYAPQTYAAIPSLHFPATKGHLSNRAIIRAPSVRGAAGVRGLGGRGYLAYTGLGRGYQVKGDKREDKLYDILPGMELTPMNPVTLKPQGIKLAPQILEEICQKNNWGQPVYQLHSAIGQDQRQLFLYKITIPALASQNPAIHPFTPPKLSAFVDEAKTYAAEYTLQTLGIPTDGGDGTMATAAAAATAFPGYAVPNATAPVSAAQLKQAVTLGQDLAAYTTYEVYPTFAVTARGDGYGTF
effect of isoform expression on editing (apoB mRNA editing [2]): did not affect editing
effect of isoform expression on editing (61% editing without) (apoB mRNA editing [3]): stimulated editing activity

B3: ACF45: 45 kDa ACF variant, SEQ ID NO:18 (protein)
chain: B2 chain
effect of isoform expression on editing (apoB mRNA editing [2]): inhibited editing over two-fold
effect of isoform expression on editing (61% editing without) (apoB mRNA editing [3]): had no affect

B4: ACF: APOBEC-1 Complementation Factor (protein, UniProt Q923K9 1-594, looked up)
APOBEC1 complementation factor: MESNHKSGDGLSGTQKEAALRALVQRTGYSLVQENGQRKYGGPPPGWDTTPPERGCEIFIGKLPRDLFEDELIPLCEKIGKIYEMRMMMDFNGNNRGYAFVTFSNKQEAKNAIKQLNNYEIRNGRLLGVCASVDNCRLFVGGIPKTKKREEILSEMKKVTEGVVDVIVYPSAADKTKNRGFAFVEYESHRAAAMARRRLLPGRIQLWGHPIAVDWAEPEVEVDEDTMSSVKILYVRNLMLSTSEEMIEKEFNSIKPGAVERVKKIRDYAFVHFSNREDAVEAMKALNGKVLDGSPIEVTLAKPVDKDSYVRYTRGTGGRNTMLQEYTYPLSHVYDPTTTYLGAPVFYTPQAYAAIPSLHFPATKGHLSNRALIRTPSVREIYMNVPVGAAGVRGLGGRGYLAYTGLGRGYQVKGDKRQDKLYDLLPGMELTPMNTISLKPQGVKLAPQILEEICQKNNWGQPVYQLHSAIGQDQRQLFLYKVTIPALASQNPAIHPFTPPKLSAYVDEAKRYAAEHTLQTLGIPTEGGDAGTTAPTATSATVFPGYAVPSATAPVSTAQLKQAVTLGQDLAAYTTYEVYPTFAVTTRGDGYGTF
Kd (mooring sequence): 8 nM
